According to US20040229366A1:

Biological target: AP1 expressed in planta (35S::AP1 transgene, or ectopically activated in the tfl mutant) (Arabidopsis thaliana) (UniProt P35631)
Assay: cell-based or functional assay

AP1 expressed in planta (35S::AP1 transgene, or ectopically activated in the tfl mutant) (Arabidopsis thaliana), sequence (P35631 whole entry, change not shown): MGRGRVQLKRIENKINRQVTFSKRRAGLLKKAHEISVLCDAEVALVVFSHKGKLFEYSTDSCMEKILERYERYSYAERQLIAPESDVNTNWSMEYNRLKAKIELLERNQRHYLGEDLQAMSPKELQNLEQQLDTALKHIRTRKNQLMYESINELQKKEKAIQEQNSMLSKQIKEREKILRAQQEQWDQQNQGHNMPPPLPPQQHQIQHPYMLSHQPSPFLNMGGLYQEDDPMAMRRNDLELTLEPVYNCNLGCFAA

rosette leaves formed before flowering, tfl mutation in combination with the 35S::SEP3 transgene (rosette leaves): 2
rosette leaves produced before flowering, 35S::AP1 35S::SEP3 doubly transgenic plants (rosette leaves): 2
Substance: SEP3 expressed from the 35S::SEP3 transgene in Arabidopsis (from UniProt O22456 1-251)
